# Data as given in patent US20160272683A1 (Novo Nordisk, published 2016).
# * marks the point of attachment. C18 diacid = O=C(O)CCCCCCCCCCCCCCCCC(=O)*
# T1: human calcitonin receptor (human, UniProt P30988 25-474)
# T1 construct: whole, on cells; also called hCT-R; hCTR
# T1 sequence (looked up): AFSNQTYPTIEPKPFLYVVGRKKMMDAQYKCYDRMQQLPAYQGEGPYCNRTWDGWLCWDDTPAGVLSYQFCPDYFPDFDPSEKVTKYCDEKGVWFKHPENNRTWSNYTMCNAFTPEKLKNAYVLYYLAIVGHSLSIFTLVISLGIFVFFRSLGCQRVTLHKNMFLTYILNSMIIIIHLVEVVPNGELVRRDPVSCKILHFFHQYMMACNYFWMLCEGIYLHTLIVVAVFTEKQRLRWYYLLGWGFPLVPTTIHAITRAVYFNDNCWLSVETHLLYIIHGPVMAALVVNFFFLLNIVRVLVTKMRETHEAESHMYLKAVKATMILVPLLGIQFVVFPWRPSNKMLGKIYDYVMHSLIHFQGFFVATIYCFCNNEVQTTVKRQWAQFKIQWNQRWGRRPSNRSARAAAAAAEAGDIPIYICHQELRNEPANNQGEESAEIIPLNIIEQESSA
# Molecular target: T1, human calcitonin receptor
# Experiment: whole-cell competition vs 125I-human calcitonin (Assay VIIa)
# Procedure: The binding assay was performed using a BHK tk'ts 13 cell line was stably transfected with the human calcitonin receptor, and a CRE-responsive luciferase reporter gene.
# The day before the assay the cells were Seeded into Poly-D-Lysin coated 384W Opaque White, BD BioCoat plates (10000 cells/well) and Incubated overnight at 37° C., 5% CO2, 95% humidity. […] The morning after, the plates were washed three times in HBSS (4° C.), and lyzed in Lysis buffer (0.1 M NaOH), 1% SDS. Scintillation cocktail (MicroScint40®) was added and the plates were shaken at 500 rpm for a short period. The plate was incubated at room temperature in the dark for 1 hour and Read on a TopCounter™ (Packard). The IC₅₀ was calculated using (one site binding competition analysis) GraphPad Prism5 as a measure of receptor affinity.
row,Binder,IC50
1,"{C18 diacid}-EASELSTALAGRLSAELHELATLPRTETGPESP-NH2 (SMILES CC(C)C[C@H](NC(=O)[C@H](C)NC(=O)[C@@H](NC(=O)[C@H](CO)NC(=O)[C@H](CC(C)C)NC(=O)[C@H](CCC(=O)O)NC(=O)[C@H](CO)NC(=O)[C@H](C)NC(=O)[C@H](CCC(=O)O)NC(=O)CCCCCCCCCCCCCCCCC(=O)O)[C@@H](C)O)C(=O)N[C@@H](C)C(=O)NCC(=O)N[C@@H](CCCNC(=N)N)C(=O)N[C@@H](CC(C)C)C(=O)N[C@@H](CO)C(=O)N[C@@H](C)C(=O)N[C@@H](CCC(=O)O)C(=O)N[C@@H](CC(C)C)C(=O)N[C@@H](Cc1c[nH]cn1)C(=O)N[C@@H](CCC(=O)O)C(=O)N[C@@H](CC(C)C)C(=O)N[C@@H](C)C(=O)N[C@H](C(=O)N[C@@H](CC(C)C)C(=O)N1CCC[C@H]1C(=O)N[C@@H](CCCNC(=N)N)C(=O)N[C@H](C(=O)N[C@@H](CCC(=O)O)C(=O)N[C@H](C(=O)NCC(=O)N1CCC[C@H]1C(=O)N[C@@H](CCC(=O)O)C(=O)N[C@@H](CO)C(=O)N1CCC[C@H]1C(N)=O)[C@@H](C)O)[C@@H](C)O)[C@@H](C)O, also called Ex. #27) [[N-terminal(C18 diacid), 9L, 10A]mimylin]",0.219 nM
2,"{C18 diacid}-EASELSTLALGRLSAELHELATLPRTETGPESP-NH2 (SMILES CC(C)C[C@H](NC(=O)[C@H](C)NC(=O)[C@H](CC(C)C)NC(=O)[C@@H](NC(=O)[C@H](CO)NC(=O)[C@H](CC(C)C)NC(=O)[C@H](CCC(=O)O)NC(=O)[C@H](CO)NC(=O)[C@H](C)NC(=O)[C@H](CCC(=O)O)NC(=O)CCCCCCCCCCCCCCCCC(=O)O)[C@@H](C)O)C(=O)NCC(=O)N[C@@H](CCCNC(=N)N)C(=O)N[C@@H](CC(C)C)C(=O)N[C@@H](CO)C(=O)N[C@@H](C)C(=O)N[C@@H](CCC(=O)O)C(=O)N[C@@H](CC(C)C)C(=O)N[C@@H](Cc1c[nH]cn1)C(=O)N[C@@H](CCC(=O)O)C(=O)N[C@@H](CC(C)C)C(=O)N[C@@H](C)C(=O)N[C@H](C(=O)N[C@@H](CC(C)C)C(=O)N1CCC[C@H]1C(=O)N[C@@H](CCCNC(=N)N)C(=O)N[C@H](C(=O)N[C@@H](CCC(=O)O)C(=O)N[C@H](C(=O)NCC(=O)N1CCC[C@H]1C(=O)N[C@@H](CCC(=O)O)C(=O)N[C@@H](CO)C(=O)N1CCC[C@H]1C(N)=O)[C@@H](C)O)[C@@H](C)O)[C@@H](C)O, also called Ex. #15) [[N-terminal(C18 diacid), 8L]mimylin]",0.473 nM
3,"{C18 diacid}-EASELSTAVLGRLSAELAELATLPRTETGPESP-NH2 (SMILES CC(C)C[C@H](NC(=O)[C@H](CCC(=O)O)NC(=O)[C@H](C)NC(=O)[C@H](CO)NC(=O)[C@H](CC(C)C)NC(=O)[C@H](CCCNC(=N)N)NC(=O)CNC(=O)[C@H](CC(C)C)NC(=O)[C@@H](NC(=O)[C@H](C)NC(=O)[C@@H](NC(=O)[C@H](CO)NC(=O)[C@H](CC(C)C)NC(=O)[C@H](CCC(=O)O)NC(=O)[C@H](CO)NC(=O)[C@H](C)NC(=O)[C@H](CCC(=O)O)NC(=O)CCCCCCCCCCCCCCCCC(=O)O)[C@@H](C)O)C(C)C)C(=O)N[C@@H](C)C(=O)N[C@@H](CCC(=O)O)C(=O)N[C@@H](CC(C)C)C(=O)N[C@@H](C)C(=O)N[C@H](C(=O)N[C@@H](CC(C)C)C(=O)N1CCC[C@H]1C(=O)N[C@@H](CCCNC(=N)N)C(=O)N[C@H](C(=O)N[C@@H](CCC(=O)O)C(=O)N[C@H](C(=O)NCC(=O)N1CCC[C@H]1C(=O)N[C@@H](CCC(=O)O)C(=O)N[C@@H](CO)C(=O)N1CCC[C@H]1C(N)=O)[C@@H](C)O)[C@@H](C)O)[C@@H](C)O, also called Ex. #33) [[N-terminal(C18 diacid), 9V, 18A]mimylin]",0.752 nM

# Further binders by falling IC50, results first:
row,IC50,Binder
1,0.981 nM,"{C18 diacid}-EASELHTAALGRLSAELHELATLPRTETGPESP-NH2 (SMILES CC(C)C[C@H](NC(=O)[C@H](C)NC(=O)[C@H](C)NC(=O)[C@@H](NC(=O)[C@H](Cc1c[nH]cn1)NC(=O)[C@H](CC(C)C)NC(=O)[C@H](CCC(=O)O)NC(=O)[C@H](CO)NC(=O)[C@H](C)NC(=O)[C@H](CCC(=O)O)NC(=O)CCCCCCCCCCCCCCCCC(=O)O)[C@@H](C)O)C(=O)NCC(=O)N[C@@H](CCCNC(=N)N)C(=O)N[C@@H](CC(C)C)C(=O)N[C@@H](CO)C(=O)N[C@@H](C)C(=O)N[C@@H](CCC(=O)O)C(=O)N[C@@H](CC(C)C)C(=O)N[C@@H](Cc1c[nH]cn1)C(=O)N[C@@H](CCC(=O)O)C(=O)N[C@@H](CC(C)C)C(=O)N[C@@H](C)C(=O)N[C@H](C(=O)N[C@@H](CC(C)C)C(=O)N1CCC[C@H]1C(=O)N[C@@H](CCCNC(=N)N)C(=O)N[C@H](C(=O)N[C@@H](CCC(=O)O)C(=O)N[C@H](C(=O)NCC(=O)N1CCC[C@H]1C(=O)N[C@@H](CCC(=O)O)C(=O)N[C@@H](CO)C(=O)N1CCC[C@H]1C(N)=O)[C@@H](C)O)[C@@H](C)O)[C@@H](C)O, also called Ex. #16) [[N-terminal(C18 diacid), 6H]mimylin]"
2,0.749 nM,"{C18 diacid}-EASEVSTAVLGRLSAELHELATLPRTETGPESP-NH2 (SMILES CC(C)C[C@H](NC(=O)[C@H](CCC(=O)O)NC(=O)[C@H](Cc1c[nH]cn1)NC(=O)[C@H](CC(C)C)NC(=O)[C@H](CCC(=O)O)NC(=O)[C@H](C)NC(=O)[C@H](CO)NC(=O)[C@H](CC(C)C)NC(=O)[C@H](CCCNC(=N)N)NC(=O)CNC(=O)[C@H](CC(C)C)NC(=O)[C@@H](NC(=O)[C@H](C)NC(=O)[C@@H](NC(=O)[C@H](CO)NC(=O)[C@@H](NC(=O)[C@H](CCC(=O)O)NC(=O)[C@H](CO)NC(=O)[C@H](C)NC(=O)[C@H](CCC(=O)O)NC(=O)CCCCCCCCCCCCCCCCC(=O)O)C(C)C)[C@@H](C)O)C(C)C)C(=O)N[C@@H](C)C(=O)N[C@H](C(=O)N[C@@H](CC(C)C)C(=O)N1CCC[C@H]1C(=O)N[C@@H](CCCNC(=N)N)C(=O)N[C@H](C(=O)N[C@@H](CCC(=O)O)C(=O)N[C@H](C(=O)NCC(=O)N1CCC[C@H]1C(=O)N[C@@H](CCC(=O)O)C(=O)N[C@@H](CO)C(=O)N1CCC[C@H]1C(N)=O)[C@@H](C)O)[C@@H](C)O)[C@@H](C)O, also called Ex. #24) [[N-terminal(C18 diacid), 5V, 9V]mimylin]"
3,0.57 nM,"{C18 diacid}-EASELSTAVIGRLSAELHELATLPRTETGPESP-NH2 (SMILES CC[C@H](C)[C@H](NC(=O)[C@@H](NC(=O)[C@H](C)NC(=O)[C@@H](NC(=O)[C@H](CO)NC(=O)[C@H](CC(C)C)NC(=O)[C@H](CCC(=O)O)NC(=O)[C@H](CO)NC(=O)[C@H](C)NC(=O)[C@H](CCC(=O)O)NC(=O)CCCCCCCCCCCCCCCCC(=O)O)[C@@H](C)O)C(C)C)C(=O)NCC(=O)N[C@@H](CCCNC(=N)N)C(=O)N[C@@H](CC(C)C)C(=O)N[C@@H](CO)C(=O)N[C@@H](C)C(=O)N[C@@H](CCC(=O)O)C(=O)N[C@@H](CC(C)C)C(=O)N[C@@H](Cc1c[nH]cn1)C(=O)N[C@@H](CCC(=O)O)C(=O)N[C@@H](CC(C)C)C(=O)N[C@@H](C)C(=O)N[C@H](C(=O)N[C@@H](CC(C)C)C(=O)N1CCC[C@H]1C(=O)N[C@@H](CCCNC(=N)N)C(=O)N[C@H](C(=O)N[C@@H](CCC(=O)O)C(=O)N[C@H](C(=O)NCC(=O)N1CCC[C@H]1C(=O)N[C@@H](CCC(=O)O)C(=O)N[C@@H](CO)C(=O)N1CCC[C@H]1C(N)=O)[C@@H](C)O)[C@@H](C)O)[C@@H](C)O, also called Ex. #26) [[N-terminal(C18 diacid), 9V, 10I]mimylin]"
4,0.523 nM,"{C18 diacid}-EASELSTAILGRLSAELHELATLPRTETGPESP-NH2 (SMILES CC[C@H](C)[C@H](NC(=O)[C@H](C)NC(=O)[C@@H](NC(=O)[C@H](CO)NC(=O)[C@H](CC(C)C)NC(=O)[C@H](CCC(=O)O)NC(=O)[C@H](CO)NC(=O)[C@H](C)NC(=O)[C@H](CCC(=O)O)NC(=O)CCCCCCCCCCCCCCCCC(=O)O)[C@@H](C)O)C(=O)N[C@@H](CC(C)C)C(=O)NCC(=O)N[C@@H](CCCNC(=N)N)C(=O)N[C@@H](CC(C)C)C(=O)N[C@@H](CO)C(=O)N[C@@H](C)C(=O)N[C@@H](CCC(=O)O)C(=O)N[C@@H](CC(C)C)C(=O)N[C@@H](Cc1c[nH]cn1)C(=O)N[C@@H](CCC(=O)O)C(=O)N[C@@H](CC(C)C)C(=O)N[C@@H](C)C(=O)N[C@H](C(=O)N[C@@H](CC(C)C)C(=O)N1CCC[C@H]1C(=O)N[C@@H](CCCNC(=N)N)C(=O)N[C@H](C(=O)N[C@@H](CCC(=O)O)C(=O)N[C@H](C(=O)NCC(=O)N1CCC[C@H]1C(=O)N[C@@H](CCC(=O)O)C(=O)N[C@@H](CO)C(=O)N1CCC[C@H]1C(N)=O)[C@@H](C)O)[C@@H](C)O)[C@@H](C)O, also called Ex. #10) [[N-terminal(C18 diacid), 9I]mimylin]"
